Values of other authors in patent publication US11739305B2, “Sialyltransferase variants having neosialidase activity” (The Regents of the University of California, priority 2017, dated 2023).
Where two headings read alike, the source gives them in different places.

Experiments:
[1] = reported previously using Neu5Acα2-6GalβpNP as the substrate (Li, Chen, et al. Mol. BioSyst. 2011)
[2] = CMP-Neu5Ac hydrolysis, wild-type, reported previously (McArthur, Chen, et al. Org. Biomol. Chem. 2017)
[3] = wild-type, reported previously (Cheng, Chen, et al. Glycobiology 2010)

Molecule	Km [1]	kcat [1]	Km [2]	kcat [2]	Km [3]	kcat [3]
hNEU2: human NEU2, an α2-3/6/8-sialidase (protein, UniProt Q9Y3R4 1-380, looked up) Sialidase-2: MASLPVLQKESVFQSGAHAYRIPALLYLPGQQSLLAFAEQRASKKDEHAELIVLRRGDYDAPTHQVQWQAQEVVAQARLDGHRSMNPCPLYDAQTGTLFLFFIAIPGQVTEQQQLQTRANVTRLCQVTSTDHGRTWSSPRDLTDAAIGPAYREWSTFAVGPGHCLQLHDRARSLVVPAYAYRKLHPIQRPIPSAFCFLSHDHGRTWARGHFVAQDTLECQVAEVETGEQRVVTLNARSHLRARVQAQSTNDGLDFQESQLVKKLVEPPPQGCQGSVISFPSPRSGPGSPAQWLLYTHPTHSWQRADLGAYLNPRPPAPEAWSEPVLLAKGSCAYSDLQSMGTGPDGSPLFGCLYEANDYEEIVFLMFTLKQAFPAEYLPQ	2.1 ± 0.2 mM	0.18 ± 0.01 s⁻¹	–	–	–	–
Pd2,6ST: Photobacterium damselae α2-6-sialyltransferase, wild-type enzyme (GenBank BAA25316.1, SEQ ID NO: 1) (protein, listed as Photobacterium damselae) MKKILTVLSIFILSACNSDNTSLKETVSSNSADVVETETYQLTPIDAPSSFLSHSWEQTCGTPILNESDKQAISFDFVAPELKQDEKYCFTFKGITGDHRYITNTTLTVVAPTLEVYIDHASLPSLQQLIHIIQAKDEYPSNQRFVSWKRVTVDADNANKLNIHTYPLKGNNTSPEMVAAIDEYAQSKNRLNIEFYTNTAHVFNNLPPIIQPLYNNEKVKISHISLYDDGSSEYVSLYQWKDTPNKIETLEGEVSLLANYLAGTSPDAPKGMGNRYNWHKLYDTDYYFLREDYLDVEANLHDLRDYLGSSAKQMPWDEFAKLSDSQQTLFLDIVGFDKEQLQQQYSQSPLPNFIFTGTTTWAGGETKEYYAQQQVNVINNAINETSPYYLGKDYDLFFKGHPAGGVINDIILGSFPDMINIPAKISFEVLMMTDMLPDTVAGIASSLYFTIPADKVNFIVFTSSDTITDREEALKSPLVQVMLTLGIVKEKDVLFWADHKVNSMEVAIDEACTRIIAKRQPTASDLRLVIAIIKTITDLERIGDVAESIAKVALESFSNKQYNLLVSLESLGQHTVRMLHEVLDAFARMDVKAAIEVYQEDDRIDQEYESIVRQLMAHMMEDPSSIPNVMKVMWAARSIERVGDRCQNICEYIIYFVKGKDVRHTKPDDFGTMLD	–	–	45 ± 14 mM	(4.0 ± 0.9) × 10^2 min^−1	7.6 ± 0.5 mM	0.137 ± 0.005 s⁻¹
